Measured values reported in US20160230171.

T1: plakoglobin
T1 chain: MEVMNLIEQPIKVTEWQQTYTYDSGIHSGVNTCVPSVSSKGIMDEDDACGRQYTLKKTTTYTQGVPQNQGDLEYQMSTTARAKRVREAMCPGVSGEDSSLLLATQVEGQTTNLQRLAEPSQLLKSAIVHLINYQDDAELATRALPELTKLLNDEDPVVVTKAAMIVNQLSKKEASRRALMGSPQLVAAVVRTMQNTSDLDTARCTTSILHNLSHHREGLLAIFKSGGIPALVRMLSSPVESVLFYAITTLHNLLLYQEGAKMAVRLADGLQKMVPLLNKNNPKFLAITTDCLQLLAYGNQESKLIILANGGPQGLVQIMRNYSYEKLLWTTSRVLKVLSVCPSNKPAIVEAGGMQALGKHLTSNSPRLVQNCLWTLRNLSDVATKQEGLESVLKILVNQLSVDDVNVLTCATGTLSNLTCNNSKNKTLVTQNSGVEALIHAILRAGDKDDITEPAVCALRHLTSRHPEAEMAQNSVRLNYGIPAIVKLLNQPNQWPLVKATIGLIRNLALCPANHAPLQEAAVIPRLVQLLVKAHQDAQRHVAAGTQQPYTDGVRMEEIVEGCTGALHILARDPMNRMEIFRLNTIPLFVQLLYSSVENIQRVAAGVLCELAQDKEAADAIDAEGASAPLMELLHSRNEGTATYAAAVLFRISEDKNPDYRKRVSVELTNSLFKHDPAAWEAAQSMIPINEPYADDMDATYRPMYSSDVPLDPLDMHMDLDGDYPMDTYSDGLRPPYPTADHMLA

T2: 6His-plakoglobin
T2 chain: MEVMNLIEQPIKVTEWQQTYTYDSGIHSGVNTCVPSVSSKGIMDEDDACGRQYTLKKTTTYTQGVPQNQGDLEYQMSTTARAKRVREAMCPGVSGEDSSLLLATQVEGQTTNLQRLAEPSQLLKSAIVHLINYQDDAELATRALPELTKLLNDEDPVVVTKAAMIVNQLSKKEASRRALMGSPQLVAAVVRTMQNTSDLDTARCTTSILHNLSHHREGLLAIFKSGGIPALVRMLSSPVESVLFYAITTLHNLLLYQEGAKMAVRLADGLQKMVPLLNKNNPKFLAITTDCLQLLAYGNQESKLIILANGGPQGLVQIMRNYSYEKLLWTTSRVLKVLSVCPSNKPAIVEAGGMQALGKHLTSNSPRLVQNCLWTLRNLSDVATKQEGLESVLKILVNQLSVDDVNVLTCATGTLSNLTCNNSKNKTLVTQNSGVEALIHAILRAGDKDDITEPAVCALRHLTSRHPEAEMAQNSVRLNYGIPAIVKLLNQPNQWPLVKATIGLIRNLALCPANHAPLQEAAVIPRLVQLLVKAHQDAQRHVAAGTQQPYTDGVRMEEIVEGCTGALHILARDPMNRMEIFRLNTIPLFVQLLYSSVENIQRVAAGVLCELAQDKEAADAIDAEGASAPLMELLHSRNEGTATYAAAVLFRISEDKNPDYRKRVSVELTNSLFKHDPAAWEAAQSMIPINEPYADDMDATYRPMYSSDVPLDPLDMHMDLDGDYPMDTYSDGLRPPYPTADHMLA


Assays:
plakoglobin = biological target: T1, plakoglobin
6His-plakoglobin = biological target: T2, 6His-plakoglobin

Protein	polyubiquitination in vitro (E1, UbcH5, ATP, 6His-ubiquitin; nickel column; mass spectrometry) (plakoglobin)	polyubiquitination in vitro (Trim32, UbcH5, ubiquitin, ATP; Ni column; immunoblot with anti plakoglobin) (6His-plakoglobin)
GST-Trim32 (protein) MAAAAAASHLNLDALREVLECPICMESFTEEQLRPKLLHCGHTICRQCLEKLLASSINGVRCPFCSKITRITSLTQLTDNLTVLKIIDTAGLSEAVGLLMCRGCGRRLPRQFCRSCGVVLCEPCREADHQPPGHCTLPVKEAAEERRRDFGEKLTRLRELTGELQRRKAALEGVSRDLQARYKAVLQEYGHEERRIQEELARSRKFFTGSLAEVEKSNSQVVEEQSYLLNIAEVQAVSRCDYFLAKIKQADVALLEETADEEEPELTASLPRELTLQDVELLKVGHVGPLQIGQAVKKPRTVNMEDSWAGEEGAASSASASVTFREMDMSPEEVAPSPRASPAKQRSSEAASGIQQCLFLKKMGAKGSTPGMFNLPVSLYVTSQSEVLVADRGNYRIQVFNRKGFLKEIRRSPSGIDSFVLSFLGADLPNLTPLSVAMNCHGLIGVTDSYDNSLKVYTMDGHCVACHRSQLSKPWGITALPSGQFVVTDVEGGKLWCFTVDRGAGVVKYSCLCSAVRPKFVTCDAEGTVYFTQGLGLNVENRQNEHHLEGGFSIGSVGPDGQLGRQISHFFSENEDFRCIAGMCVDARGDLIVADSSRKEILHFPKGGGYSVLIREGLTCPVGIALTPKGQLLVLDCWDHCVKIYSYHLRRYSTP	plakoglobin was polyubiquitinated by Trim32 (as documented by the presence of 13 unique peptides)	–
recombinant Trim32 (protein) MAAAAAASHLNLDALREVLECPICMESFTEEQLRPKLLHCGHTICRQCLEKLLASSINGVRCPFCSKITRITSLTQLTDNLTVLKIIDTAGLSEAVGLLMCRGCGRRLPRQFCRSCGVVLCEPCREADHQPPGHCTLPVKEAAEERRRDFGEKLTRLRELTGELQRRKAALEGVSRDLQARYKAVLQEYGHEERRIQEELARSRKFFTGSLAEVEKSNSQVVEEQSYLLNIAEVQAVSRCDYFLAKIKQADVALLEETADEEEPELTASLPRELTLQDVELLKVGHVGPLQIGQAVKKPRTVNMEDSWAGEEGAASSASASVTFREMDMSPEEVAPSPRASPAKQRSSEAASGIQQCLFLKKMGAKGSTPGMFNLPVSLYVTSQSEVLVADRGNYRIQVFNRKGFLKEIRRSPSGIDSFVLSFLGADLPNLTPLSVAMNCHGLIGVTDSYDNSLKVYTMDGHCVACHRSQLSKPWGITALPSGQFVVTDVEGGKLWCFTVDRGAGVVKYSCLCSAVRPKFVTCDAEGTVYFTQGLGLNVENRQNEHHLEGGFSIGSVGPDGQLGRQISHFFSENEDFRCIAGMCVDARGDLIVADSSRKEILHFPKGGGYSVLIREGLTCPVGIALTPKGQLLVLDCWDHCVKIYSYHLRRYSTP	–	recombinant Trim32 also polyubiquitinated 6His-plakoglobin, which was expressed and purified from normal muscle
